Measurements as given in patent US11618906B2, “Hydroxylation techniques” (HYPHA DISCOVERY LTD., priority 2018, dated 2023).

Columns and labels:
Type in all cases: biochemical
[1] = Metabolism of buparvaquone by P450 aluC09 and mutants; conditions: percent of substrate being converted; 0.125 mg/ml, 27° C., 16-20 hours; [CYP] per enzyme as in Table 8
How it was run: (§1)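 Biotransformation: CYP aluC09 mutant + ferredoxin aluF03 + reductase SCF15A, 0.125 mg/ml substrate, KPi 50 mM pH 7.4, MgCl2 5 mM, G6P/NADP/G6PDH recycling; 27° C, 16-20 h shaking; MeCN quench, UPLC-MS conversion.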

[2] = O-demethylation of indomethacin catalysed by cytochrome P450 aluC09 and mutants; conditions: % by UV peak area at 275 nm; 0.125 mg/ml substrate, 27° C., 16-20 hours
How it was run: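 Lyophilised CYP450aluC09 mutants with ferredoxin aluF03 and reductase SCF15A, 0.125 mg/ml substrate, 50 mM potassium phosphate pH 7.4, 5 mM MgCl2, G6P/G6PDH/NADP recycling. Shaken 16-20 h at 27° C. Acetonitrile-quenched, conversion measured by UPLC-MS.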

[3] = Metabolism of valsartan by P450 aluC09 and mutants; conditions: percent of substrate being converted; 0.125 mg/ml, 27° C., 16-20 hours; [CYP] per enzyme as in Table 8
How it was run: as §1

[4] = Metabolism of celecoxib by P450 aluC09 and mutants; conditions: percent of substrate being converted; 0.125 mg/ml, 27° C., 16-20 hours; [CYP] per enzyme as in Table 8
How it was run: as §1

[5] = Hydroxylation of aceclofenac catalysed by cytochrome P450 aluC09 and mutants; conditions: for Aceclofenac (Substrate) (1.80 mins) / Dihydroxy-Aceclofenac (1.42 mins) / Hydroxy-Aceclofenac (1) (1.64 min) / Hydroxy-Aceclofenac (2) (1.60 min): % by UV peak area at 275 nm, 0.125 mg/ml substrate, 27° C., 16-20 hours; for Hydroxylated Ratio 2:1: aceclofenac, ratio of UV peak areas at 275 nm
How it was run: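 Conversion was assessed by UPLC-MS (UV and MS detection) after acetonitrile extraction of reactions run 16-20 h at 27° C, shaking. Reactions contained substrate at 0.125 mg/ml, P450 mutant plus ferredoxin and reductase partners, 1 mM NADP with glucose-6-phosphate regeneration, in phosphate buffer pH 7.4.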

[6] = Metabolism of bosentan by P450 aluC09 and mutants; conditions: percent of substrate being converted; 0.125 mg/ml, 27° C., 16-20 hours; [CYP] per enzyme as in Table 8
How it was run: as §1

[7] = Metabolism of 4-pyrrolidylacetophenone by P450 aluC09 and mutants; conditions: percent of substrate being converted; 0.125 mg/ml, 27° C., 16-20 hours; [CYP] per enzyme as in Table 8
How it was run: as §1

[8] = Hydroxylation / de-N-ethylation of napropamide catalysed by cytochrome P450 aluC09 and mutants; conditions: for Desethyl Napropamide (1.62 min) / Desethyl-hydroxy-Napropamide (1.41 min) / Hydroxy-Napropamide (1) (1.53 min) / Hydroxy-Napropamide (2), (1.52 min) / M-2Da (unidentified) (1.89 min) / Napropamide (substrate): % by UV peak area at 275 nm, 0.125 mg/ml substrate, 27° C., 16-20 hours; for Hydroxylated Ratio 2:1: napropamide, ratio of UV peak areas
How it was run: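 Conversion of napropamide (0.125 mg/ml) to hydroxylated and de-ethylated metabolites was measured by UPLC-MS after acetonitrile extraction. Reactions ran 16-20 h at 27° C in pH 7.4 potassium phosphate (50 mM) with 5 mM MgCl2, 1 mM NADP, 5 mM G6P and 2 UN/ml G6PDH. Enzymes were lyophilised P450 aluC09 variants, ferredoxin aluF03 and ferredoxin reductase SCF15A.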

[9] = Hydroxylation of flufenamic acid catalysed by cytochrome P450 aluC09 and mutants; conditions: for Flufenamic Acid (Substrate) 1.93 mins / Hydroxy-Flufenamic Acid (1) 1.69 mins / Hydroxy-Flufenamic Acid (2) 1.65 mins: % by UV peak area at 275 nm, 0.125 mg/ml substrate, 27° C., 16-20 hours; for Hydroxylated Ratio 1:2: flufenamic acid, ratio of UV peak areas at 275 nm
How it was run: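 Lyophilised CYP450aluC09 mutants with ferredoxin aluF03 and reductase SCF15A, in 50 mM potassium phosphate pH 7.4, 5 mM MgCl2, 0.125 mg/ml flufenamic acid, G6P/NADP/G6PDH NADPH regeneration. Shaken 16-20 h at 27° C; acetonitrile-quenched, conversion to two hydroxy products by UPLC-MS.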

[10] = Metabolism of epothilone B by P450 aluC09 and mutants; conditions: percent of substrate being converted; 0.125 mg/ml, 27° C., 16-20 hours; [CYP] per enzyme as in Table 8
How it was run: as §1

[11] = Metabolism of ruxolitinib by P450 aluC09 and mutants; conditions: percent of substrate being converted; 0.125 mg/ml, 27° C., 16-20 hours; [CYP] per enzyme as in Table 8
How it was run: as §1

[12] = Metabolism of BIRB796 by P450 aluC09 and mutants; conditions: percent of substrate being converted; 0.125 mg/ml, 27° C., 16-20 hours; [CYP] per enzyme as in Table 8
How it was run: as §1

[13] = Metabolism of tivantinib by P450 aluC09 and mutants; conditions: percent of substrate being converted; 0.125 mg/ml, 27° C., 16-20 hours; [CYP] per enzyme as in Table 8
How it was run: as §1

[14] = Metabolism of ritonavir by P450 aluC09 and mutants; conditions: percent of substrate being converted; 0.125 mg/ml, 27° C., 16-20 hours; [CYP] per enzyme as in Table 8
How it was run: as §1

[15] = Hydroxylation of diclofenac catalysed by cytochrome P450 aluC09 and mutants (UPLC-PDA-MS); conditions: for 4′,5-dihydroxy-diclofenac 1.38 mins / 4′-hydroxy-diclofenac (1) 1.62 mins / 5-hydroxy-diclofenac (2) 1.58 mins / Diclofenac (Substrate) 1.81 mins: % by UV peak area at 275 nm, 0.125 mg/ml substrate, 27° C., 16-20 hours; for Hydroxylated Ratio hydroxy 1:hydroxy 2: diclofenac, ratio of UV peak areas at 275nm
How it was run: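 Lyophilised CYP450aluC09 or mutants, with ferredoxin aluF03 and reductase SCF15A, incubated 16-20 hours at 27° C with 0.125 mg/ml diclofenac in 50 mM potassium phosphate pH 7.4, 5 mM MgCl2, and G6P/NADP/G6PDH regeneration. Acetonitrile-extracted; conversion by UPLC-PDA-MS against authentic hydroxylated standards.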

[16] = Metabolism of tofacitinib by P450 aluC09 and mutants; conditions: percent of substrate being converted; 0.125 mg/ml, 27° C., 16-20 hours; [CYP] per enzyme as in Table 8
How it was run: as §1

Molecule | % conversions (avg) Buparvaquone [1] [%] | Indomethacin (1.74 mins) [2] [%] | O-demethyl-Indomethacin (1.52 mins) [2] [%] | % conversions (avg) Valsartan [3] [%] | % conversions (avg) Celecoxib [4] [%] | Aceclofenac (Substrate) (1.80 mins) [5] [%] | Dihydroxy-Aceclofenac (1.42 mins) [5] [%] | Hydroxy-Aceclofenac (1) (1.64 min) [5] [%] | Hydroxy-Aceclofenac (2) (1.60 min) [5] [%] | Hydroxylated Ratio 2:1 [5] | % conversions (avg) Bosentan [6] [%] | % conversions (avg) 4-pyrrolidylacetophenone [7] [%] | Desethyl Napropamide (1.62 min) [8] [%] | Desethyl-hydroxy-Napropamide (1.41 min) [8] [%] | Hydroxy-Napropamide (1) (1.53 min) [8] [%] | Hydroxy-Napropamide (2), (1.52 min) [8] [%] | M-2Da (unidentified) (1.89 min) [8] [%] | Napropamide (substrate) [8] [%] | Hydroxylated Ratio 2:1 [8] | Flufenamic Acid (Substrate) 1.93 mins [9] [%] | further results
aluC09M36: cytochrome P450 aluC09 mutant T291F; amino acid sequence SEQ ID NO: 56 (protein, listed as Amycolatopsis lurida) MTDVEETTATLPLARKCPFSPPPEYERLRRESPVSRVGLPSGQTAWALTRLEDIREMLSSPHFSSDRQSPSFPLMVARQIRREDKPFRPSLIAMDPPEHSRARRDVVGEFTVKRMKALQPRIQQIVDEHLDALLAGPKPADLVQALSLPVPSLVICELLGVPYSDHEFFQSCSSRMLSREVTAEERMTAFEQLENYLDELVTKKEANATEDDLLGRQILKQRETGEADHGELVGLAFLLLIAGHETTANMISLGTVTLLENPDQLAKIKADPGKTLAAIEELLRVFTIAEFATSRFATADVEIGGTLIRAGEGVVGLSNAGNHDPDGFENPDTFDIERGARHHVAFGFGVHQCLGQNLARLELQIVFDTLFRRVPGLRIAVPVDELPFKHDSTIYGLHALPVTW | 9.5 | 80.3 | 19.7 | 45.7 | 5.7 | 9.3 | 44.6 | 7.2 | 38.9 | 5.4 | 99.5 | 6.8 | 40.5 | 3.1 | 1.2 | 3.5 | 6.3 | 46.8 | 3.0 | 89.8 | Hydroxy-Flufenamic Acid (1) 1.69 mins [9]: 7.7%; Hydroxy-Flufenamic Acid (2) 1.65 mins [9]: 2.6%; Hydroxylated Ratio 1:2 [9]: 3.0; % conversions (avg) Epothilone B [10]: 62.3%; % conversions (avg) Ruxolitinib [11]: 42.1%; % conversions (avg) BIRB796 [12]: 20%; % conversions (avg) Tivantinib [13]: 30.4%; % conversions (avg) Ritonavir [14]: 73.8%; 4′,5-dihydroxy-diclofenac 1.38 mins [15]: 3.6%; 4′-hydroxy-diclofenac (1) 1.62 mins [15]: 42.8%; 5-hydroxy-diclofenac (2) 1.58 mins [15]: 23.0%; Diclofenac (Substrate) 1.81 mins [15]: 33.0%; Hydroxylated Ratio hydroxy 1:hydroxy 2 [15]: 1.9; % conversions (avg) Tofacitinib [16]: 2.4%
aluC09M37: cytochrome P450 aluC09 mutant T291W; amino acid sequence SEQ ID NO: 60 (protein, listed as Amycolatopsis lurida) MTDVEETTATLPLARKCPFSPPPEYERLRRESPVSRVGLPSGQTAWALTRLEDIREMLSSPHFSSDRQSPSFPLMVARQIRREDKPFRPSLIAMDPPEHSRARRDVVGEFTVKRMKALQPRIQQIVDEHLDALLAGPKPADLVQALSLPVPSLVICELLGVPYSDHEFFQSCSSRMLSREVTAEERMTAFEQLENYLDELVTKKEANATEDDLLGRQILKQRETGEADHGELVGLAFLLLIAGHETTANMISLGTVTLLENPDQLAKIKADPGKTLAAIEELLRVFTIAEWATSRFATADVEIGGTLIRAGEGVVGLSNAGNHDPDGFENPDTFDIERGARHHVAFGFGVHQCLGQNLARLELQIVFDTLFRRVPGLRIAVPVDELPFKHDSTIYGLHALPVTW | 10.5 | 89.0 | 11.0 | 41 | 7.2 | 4.2 | 56.0 | 4.5 | 35.3 | 7.8 | 98.6 | 7.3 | 40.1 | 3.3 | 1.6 | 3.3 | 6.0 | 47.3 | 2.1 | 91.3 | Hydroxy-Flufenamic Acid (1) 1.69 mins [9]: 6.4%; Hydroxy-Flufenamic Acid (2) 1.65 mins [9]: 2.2%; Hydroxylated Ratio 1:2 [9]: 2.9; % conversions (avg) Epothilone B [10]: 50.2%; % conversions (avg) Ruxolitinib [11]: 34.2%; % conversions (avg) BIRB796 [12]: 10%; % conversions (avg) Tivantinib [13]: 31%; % conversions (avg) Ritonavir [14]: 64.1%; 4′,5-dihydroxy-diclofenac 1.38 mins [15]: 1.9%; 4′-hydroxy-diclofenac (1) 1.62 mins [15]: 31.4%; 5-hydroxy-diclofenac (2) 1.58 mins [15]: 15.9%; Diclofenac (Substrate) 1.81 mins [15]: 51.8%; Hydroxylated Ratio hydroxy 1:hydroxy 2 [15]: 2.0; % conversions (avg) Tofacitinib [16]: 0.9%
aluC09M40: cytochrome P450 aluC09 mutant T291R; amino acid sequence SEQ ID NO: 72 (protein, listed as Amycolatopsis lurida) MTDVEETTATLPLARKCPFSPPPEYERLRRESPVSRVGLPSGQTAWALTRLEDIREMLSSPHFSSDRQSPSFPLMVARQIRREDKPFRPSLIAMDPPEHSRARRDVVGEFTVKRMKALQPRIQQIVDEHLDALLAGPKPADLVQALSLPVPSLVICELLGVPYSDHEFFQSCSSRMLSREVTAEERMTAFEQLENYLDELVTKKEANATEDDLLGRQILKQRETGEADHGELVGLAFLLLIAGHETTANMISLGTVTLLENPDQLAKIKADPGKTLAAIEELLRVFTIAERATSRFATADVEIGGTLIRAGEGVVGLSNAGNHDPDGFENPDTFDIERGARHHVAFGFGVHQCLGQNLARLELQIVFDTLFRRVPGLRIAVPVDELPFKHDSTIYGLHALPVTW | 0 | 88.8 | 11.2 | 7.3 | 0 | 46.3 | 12.7 | 19.7 | 21.4 | 1.1 | 76.5 | 1.7 | 12.9 | 0.4 | 2.3 | 1.8 | 2.4 | 80.6 | 0.8 | 94.8 | Hydroxy-Flufenamic Acid (1) 1.69 mins [9]: 4.4%; Hydroxy-Flufenamic Acid (2) 1.65 mins [9]: 0.9%; Hydroxylated Ratio 1:2 [9]: 4.9; % conversions (avg) Epothilone B [10]: 2.4%; % conversions (avg) Ruxolitinib [11]: 5.2%; % conversions (avg) BIRB796 [12]: 0%; % conversions (avg) Tivantinib [13]: 5.3%; % conversions (avg) Ritonavir [14]: 53.4%; 4′,5-dihydroxy-diclofenac 1.38 mins [15]: 2.2%; 4′-hydroxy-diclofenac (1) 1.62 mins [15]: 35.7%; 5-hydroxy-diclofenac (2) 1.58 mins [15]: 14.3%; Diclofenac (Substrate) 1.81 mins [15]: 48.8%; Hydroxylated Ratio hydroxy 1:hydroxy 2 [15]: 2.5; % conversions (avg) Tofacitinib [16]: 0.4%
